The values that follow come from patent US20240174758A1 (AstraZeneca / MedImmune, published 2024).

Experiment [1] deals with human CCR9 (isoform not given) (human) (UniProt P51686). Briefly: cell-based or functional assay.
The target of experiment [2] is CCR9 (species and isoform not stated) (UniProt P51686). Briefly: LigandTracer on CCR9-expressing CHO K1 cells, DyLight 650 labelled IgG, bivalent (1:2) fit, about 22 C.
The target in experiment [3] is T1, human CCR9B (human, UniProt P51686 13-369).
T1 construct: Overexpressed on HEK cells; also called Hu B HEK; hCCR9 isoform B
T1 sequence: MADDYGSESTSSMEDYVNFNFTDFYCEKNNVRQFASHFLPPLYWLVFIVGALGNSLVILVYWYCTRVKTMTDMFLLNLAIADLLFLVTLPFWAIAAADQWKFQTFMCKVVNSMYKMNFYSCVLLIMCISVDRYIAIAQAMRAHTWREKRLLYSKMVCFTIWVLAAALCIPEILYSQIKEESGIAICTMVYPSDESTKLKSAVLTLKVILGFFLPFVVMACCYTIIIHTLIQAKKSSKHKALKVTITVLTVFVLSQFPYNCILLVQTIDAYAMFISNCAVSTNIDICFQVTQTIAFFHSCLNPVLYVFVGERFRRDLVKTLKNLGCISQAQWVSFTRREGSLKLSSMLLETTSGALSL
Briefly: binding to HEK cells expressing human CCR9B (huCCR9B), FL1 counts against Log M, methods of Example 4.

Experiment [4] concerns the target CCR9 (species and isoform not stated) (UniProt P51686).
The target is the same in experiment [5]. Briefly: cell-based or functional assay.
The target of experiment [6] is T1, human CCR9B. Briefly: binding to cells expressing human CCR9B, FL1 counts against Log M, methods of Example 4.
Experiment [7] has as its target human CCR9 (isoform not given) (human), P51686.
Experiment [8] shares this target. Briefly: cell-based or functional assay.
In a further experiment the target is T2, rat CCR9 (rat, UniProt Q8CH33 1-369).
T2 construct: Overexpressed on HEK cells; also called Rat HEK
T2 sequence: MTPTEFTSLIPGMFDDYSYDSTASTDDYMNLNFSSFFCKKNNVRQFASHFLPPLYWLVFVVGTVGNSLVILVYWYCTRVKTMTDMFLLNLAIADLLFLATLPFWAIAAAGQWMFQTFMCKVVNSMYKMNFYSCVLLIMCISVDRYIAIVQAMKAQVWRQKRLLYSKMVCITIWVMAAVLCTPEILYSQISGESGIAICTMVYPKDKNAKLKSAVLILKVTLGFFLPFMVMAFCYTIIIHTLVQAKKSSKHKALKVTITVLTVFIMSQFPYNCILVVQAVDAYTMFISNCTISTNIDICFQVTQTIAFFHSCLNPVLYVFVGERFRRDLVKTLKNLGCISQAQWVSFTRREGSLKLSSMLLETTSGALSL
Briefly: cell binding by the methods of Example 4.

A further experiment deals with T3, mouse CCR9 (mouse, UniProt Q9WUT7 1-369).
T3 construct: whole, on cells; Overexpressed on HEK cells; also called mCCR9; Mouse HEK
T3 sequence (looked up): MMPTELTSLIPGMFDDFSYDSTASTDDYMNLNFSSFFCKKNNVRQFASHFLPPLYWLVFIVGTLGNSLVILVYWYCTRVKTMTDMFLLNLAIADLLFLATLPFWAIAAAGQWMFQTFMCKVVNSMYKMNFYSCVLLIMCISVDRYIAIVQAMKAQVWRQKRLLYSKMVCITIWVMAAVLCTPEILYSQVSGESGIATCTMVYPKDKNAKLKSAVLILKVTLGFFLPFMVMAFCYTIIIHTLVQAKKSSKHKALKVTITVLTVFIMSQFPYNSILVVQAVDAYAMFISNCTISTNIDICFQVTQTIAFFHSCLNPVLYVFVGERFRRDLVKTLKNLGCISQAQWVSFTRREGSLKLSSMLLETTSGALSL
Briefly: cell binding by the methods of Example 4.

The next experiment addresses T4, human CCR9A (human, UniProt P51686 1-369).
T4 construct: Overexpressed on HEK cells; also called Hu A HEK; hCCR9 isoform A
T4 sequence: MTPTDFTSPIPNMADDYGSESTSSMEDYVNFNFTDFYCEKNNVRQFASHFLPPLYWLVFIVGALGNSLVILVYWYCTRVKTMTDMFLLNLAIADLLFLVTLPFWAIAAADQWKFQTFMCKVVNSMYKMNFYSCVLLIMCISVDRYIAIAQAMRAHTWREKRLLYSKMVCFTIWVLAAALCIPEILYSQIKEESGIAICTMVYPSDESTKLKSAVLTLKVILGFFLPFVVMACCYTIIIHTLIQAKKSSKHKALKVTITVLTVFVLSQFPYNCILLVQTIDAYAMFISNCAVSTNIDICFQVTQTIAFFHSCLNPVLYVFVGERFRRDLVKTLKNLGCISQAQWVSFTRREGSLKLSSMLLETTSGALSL
Briefly: binding to cells expressing human CCR9A, FL1 counts against Log M, methods of Example 4.

The target in another experiment is T5, cynomolgus CCR9 (cynomolgus, UniProt Q0H741 1-369).
T5 sequence: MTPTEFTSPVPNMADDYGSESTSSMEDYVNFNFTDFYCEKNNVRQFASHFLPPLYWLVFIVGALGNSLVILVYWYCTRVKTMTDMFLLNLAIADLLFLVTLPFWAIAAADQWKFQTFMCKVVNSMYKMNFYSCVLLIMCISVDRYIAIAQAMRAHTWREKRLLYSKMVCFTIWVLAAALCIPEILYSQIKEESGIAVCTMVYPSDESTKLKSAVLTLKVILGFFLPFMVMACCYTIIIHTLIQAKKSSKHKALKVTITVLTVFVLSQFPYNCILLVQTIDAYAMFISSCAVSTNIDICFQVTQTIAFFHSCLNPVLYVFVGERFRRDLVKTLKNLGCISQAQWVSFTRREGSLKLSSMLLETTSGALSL
Briefly: cell-based or functional assay.

B1: Humanised AB1020243 (AB1020243-fgl) (antibody, V domains shown)
VH: QVQLVQSGAEVKKPGASVKVSCKASGYTFTSYWMHWVRQAPGQGLEWIGVIYPGNSDTRYNQKFKGRVTITRDTSASTAYMELSSLRSEDTAVYYCTRDYYSNYVYYYAMDYWGQGTTVTVSS
VL: DIVMTQTPLSLPVTPGEPASISCRSSQSLVHSNGNTYLHWYLQKPGQSPQLLIYKVSNRFSGVPDRFSGSGSGTDFTLKISRVEAEDVGVYYCSQSTHVPWTFGQGTKLEIK
notes: For LigandTracer it was labelled with DyLight 650 on an engineered cysteine in CH2; also called humanised AB1020243 afuc
For the molecule B1, the Potency, NK cell activation assay (NK-92 MI CD16a NFAT luciferase, in vitro ADCC bioassay) in [1] was determined as 0.8 nM. In experiment [2], this molecule gave a koff of 4.3e-05 s⁻¹. In the experiment with human CCR9B [3], the binding result is given as “binds”. This molecule also gave an EC50 of a CPS dose-response curve (potency; luminescence counts per second as in the NK cell activation assay of Example 4); target cells not named on the sheet (M (axis Log M; no unit in the table)) in experiment [4] of 7.3e-09.

B2: AB243LO0326 (antibody, V domains shown)
VH: QVQLVQSGAEVKKPGASVKVSCKASGYTFTSYWMHWVRQAPGQGLEWIGVIYPGNSDTRYNQKFKGRVTITRDTSASTAYMELSSLRSEDTAVYYCTRDYYSNYVYYYAMDYWGQGTTVTVSS
VL: DIVMTQTPLSLPVTPGEPASISCRSSQSLVHPNRNTYLHWYLQKPGQSPQLLIYKVSNRFSGVPDRFSGSGSGTDFTLKISRVEAEDVGVYYCSQSTHVPWTFGQGTKLEIK
notes: CDR-optimised humanised antibody, a-fuc huIgG1 (afucosylated in all experiments); For LigandTracer it was labelled with DyLight 650 on an engineered cysteine in CH2; also called CDR-optimised AB1020243
As to B2, the CCL25 induced CCR9 internalisation (FACS) in experiment [5] is 2 nM. Besides, the binding result with human CCR9B [6] is recorded as “binds”; in the experiment with rat CCR9 it was “no binding”; with mouse CCR9 it was “no binding”; with human CCR9A, “binds”. This molecule gave a Kd in experiment [2] of 0.09 nM. The IC50 (read off the curve) in experiment [7] was found to be 0.7 nM. The same molecule returned an EC50, killing of PBMC in [8] of 0.004 nM. Further, the EC50, killing of human CD4+CCR9+ PBMC in [8] was 0.004 to 0.005 nM. For the same molecule, the “EC50, killing of cynomolgus CD4+CCR9+ PBMC” value in the experiment with cynomolgus CCR9 turned out to be 0.03 nM.

B3: AB243LO0331 (antibody, V domains shown)
VH: QVQLVQSGAEVKKPGASVKVSCKASGYTFTSYWMHWVRQAPGQGLEWIGVIYPGNSDTRYNQKFKGRVTITRDTSASTAYMELSSLRSEDTAVYYCTRDYYSNYVYYYAMDYWGQGTTVTVSS
VL: DIVMTQTPLSLPVTPGEPASISCRSSQSLVHSNTNTYLHWYLQKPGQSPQLLIYKVSNRFSGVPDRFSGSGSGTDFTLKISRVEAEDVGVYYCSQSTHVPWTFGQGTKLEIK
notes: CDR-optimised humanised antibody, a-fuc huIgG1 (afucosylated in all experiments); The constant regions are not expressly tied to it
Molecule B3 yielded an IC50 (read off the curve) in experiment [7] of 0.7 nM. The binding result in the experiment with rat CCR9 and with mouse CCR9 was “no binding” in each case.

As usually defined, the koff is a measure of how fast the partners let go of each other. A high value points to a short-lived complex.
